Results taken from patent US20020192640A1 (Boehringer Ingelheim, published 2002).

T1: 4K-6H-NS2/3 (904-1206)st-4K (Hepatitis C virus genotype 1b)
T1 chain: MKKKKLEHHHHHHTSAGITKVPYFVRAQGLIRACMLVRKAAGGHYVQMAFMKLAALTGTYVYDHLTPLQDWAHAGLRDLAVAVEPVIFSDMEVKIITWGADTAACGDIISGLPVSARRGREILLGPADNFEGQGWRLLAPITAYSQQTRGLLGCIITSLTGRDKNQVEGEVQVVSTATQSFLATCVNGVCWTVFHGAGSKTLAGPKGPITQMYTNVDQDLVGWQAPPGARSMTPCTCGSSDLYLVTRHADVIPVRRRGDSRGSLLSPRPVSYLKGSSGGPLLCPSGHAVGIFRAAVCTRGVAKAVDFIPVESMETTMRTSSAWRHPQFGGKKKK


Target: T1, 4K-6H-NS2/3 (904-1206)st-4K
Assay: cell-based or functional assay

Row | Binder | IC50, inhibition of NS2/3 autocleavage [µM]
1 | KGWRLLAPITAY [Peptide 4, KGWRLL-APITAY] | 630
2 | APITAYSQQT [Peptide 3, APITAYSQQT] | > 1000
3 | SFEGQGWRLL [Peptide 2, SFEGQGWRLL] | 90
4 | APITAY [Peptide 5, APITAY] | 1000
5 | SFEGQGWRLLAPITAYSQQT [Peptide 1, SFEGQGWRLL-APITAYSQQT] | 270
